The data set can be described thus: soluble on expression in E. coli; label from the status in PepcDB or PDB records.
Regarding “MNKDLRPIIWNDSEKKLVLIDQRKLPNELVYFECKNYKDVCFAIKDMVVRGAPAIGVAAAYGMALAELNGEDMEKAYLELKKTRPTAVNLFWALEKIIAAKNSGKSLLDEAKLIHEEDIELCRKIGEIGEVLIDDFDTILTHCNAGALATSAYGTALSVIRFAHYNGKKINVLSDETRPRLQGAKLTCFELNYENIPVKAICDNTAGFMMSKGLVDKIIVGADRILSDYHVFNKIGTYSLAILAKYHNIPFYVAAPYSTFDFESKLEDIVIEERSESEVTHIDNVRIVAEGVSAYNFAFDCTPPELITGIITEKEIIYPNKLEHHHHHH”, the “soluble on expression in E. coli” value is “not soluble”.

Regarding “MNKELQPKVVFLMGPTASGKTALALELAEKHNCEIISVDSALIYRGMDIGSAKPSAEELARGPHRLIDIRDPSESYSAADFRADALSEIEQIISMGKTPLLVGGTMMYFKALLEGLSPLPSADEVIRADIQAEADANGWEALHDQLREIDPVSAERIHPNDPQRLSRALEVYRISGKSLTELTMTKSAPLPYNVVQFAIAPRERKVLHELIGQRFRIMLEQGFIDEVAQLKARDDLHLDLPSMRCVGYRQCWQYLDGEFDHDTMVEKAIAATRQLAKRQLTWLRSWPELNWLESGAEGNLVTLMRHCRLEHHHHHH”, the “soluble on expression in E. coli” value was “soluble”.

In the case of “MNKHSGIDFKQLNFLTKLNENHSGELWKGRWQGNDIVVKVLKVRDWSTRKSRDFNEECPRLRIFSHPNVLPVLGACQSPPAPHPTLITHWMPYGSLYNVLHEGTNFVVDQSQAVKFALDMARGMAFLHTLEPLIPRHALNSRSVMIDEDMTARISMADVKFSFQSPGRMYAPAWVAPEALQKKPEDTNRRSADMWSFAVLLWELVTREVPFADLSNMEIGMKVALEGLRPTIPPGISPHVSKLMKICMNEDPAKRPKFDMIVPILEKMQDK”, the “soluble on expression in E. coli” value is on record as “soluble”.

On to “MNKKILIIDDNKMLGKLLAKKIQMTLDYEVDIAFGFAEAKELMNNDYFLAFVDLCLPDAPNGEVVDYVIEKKIPAIVLTASGDKATKEKFMDKDILDYIFKESETCIDEIISSIVKLNQYAKTKVIVAMSKLPERNEIKKILTQRQFNVLAAAHGEEAMSYLNDNNDVKLIIADVNMPVISGFELLTQVRERFSDDELGVILLGDHNDSFEANSFKNGVNEYLFKPLSKESFNCRLDRCLSYMDDKKFLSTYNVLDPVSGVKNYNALIDGIDDYFNEIATKDEEFAFAFLDIDNLQMINDEYGREVGDEVIKICANEIVNETKGRDLVGRYSAEKICILLKNISQERAIKIFSRIRVNIKKAGVLVNLDEVFFTASIGVVFGKSGDKIDSLADKASKILSQAKDNGKDRVEVCS”, for which the “soluble on expression in E. coli” value is on record as “soluble”.

With “MNKPVSSIPQSKEELELAINSIFDKLMADYRTIPVELTRERNVEGNIKGTQVSVCDTVAYLIGWGKLVLKWHRLKAQGLPVEFPESGFKWNQLGLLAEHFHEQYADWKYEALLKELESTVNELLSLISSLSNYDLYETTWYDKWTLGRMIQFNTSSPMKNMRSKVRRFKKNKGLLLEHHHHHH”, the “soluble on expression in E. coli” value is given as “soluble”.

Regarding “MNKRVQAFLAKMQEKELDGIIINNLKNVYYLTGFWGSNGTVFISRDRQVLVTDSRYIIAAKQETSGFEIVADRDELAVIAGIVKDMGLTRIGFEDEISVSYYHRMQAAFAGLNLLPQTQFVEGLRMIK”, the “soluble on expression in E. coli” value is recorded as “not soluble”.

Take “MNLDLQKVLPAEAFETEQNEGDYIGKDGLLYCGVCRTKKQTRLPASDFTGGREIIVPCICKCKVEENKRKEEEEKKRQEMQRLERLKASSLMDAKLKAARLDGYQVDGDNQKIYNLAGNYVKRFDEMYEKRQGLLFWGTVGTGKSYTAACIANELLNQMIPVVMTSFVKILQNIQGNPDEEERIMAGLNAAKLLIIDDLGAERSTDYALEKVYNIIDSRYLSGKPLILTTNMTLKDMQESEDIRYRRIYDRIFEMCFPVRFAGRSWREKAASKRFDAMKNLMEE”: the “soluble on expression in E. coli” value is given as “not soluble”.

With “MNLIFPLFFFALLVGSNAQFQQFCNYCGFIEVPKTWPVAQDSLRSACETLGMATTACKGIINSADLNSSYGKMYPYII”, the “soluble on expression in E. coli” value is on record as “not soluble”.

Turning to “MNLITDETLVEPNLPTFEELTRVHDRKYLKSVRNPIKAAQIVEIPFVGCLPPCIIESKLLHPLRLQAGGTVLAANLALKHGWAINVGGGFHHASHSGGGGFCFYADITMAIFDLFDKKAIANAIVVDLDAHQVLEKTFERI”, the “soluble on expression in E. coli” value is “not soluble”.

“MNLLERIKKLAKDRDVSIYQLEEEINIGRNTIYQWNKRTPSSDKLEAVANYFNVSVDYLLGRTENPNQAGAKPSDDLDDVLDNVMSFDGEPLDDHDREVIRAYLKGRFGK”: the “soluble on expression in E. coli” value is “not soluble”.

For “MNLLIDNWIPVRPRNGGKVQIINLQSLYCSRDQWRLSLPRDDMELAALALLVCIGQIIAPAKDDVEFRHRIMNPLTEDEFQQLIAPWIDMFYLNHAEHPFMQTKGVKANDVTPMEKLLAGVSGATNCAFVNQPGQGEALCGGCTAIALFNQANQAPGFGGGFKSGLRGGTPVTTFVRGIDLRSTVLLNVLTLPRLQKQFPNESHTENQPTWIKPIKSNESIPASSIGFVRGLFWQPAHIELCDPIGIGKCSCCGQESNLRYTGFLKEKFTFTVNGLWPHPHSPCLVTVKKGEVEEKFLAFTTSAPSWTQISRVVVDKIIQNENGNRVAAVVNQFRNIAPQSPLELIMGGYRNNQASILERRHDVLMFNQGWQQYGNVINEIVTVGLGYKTALRKALYTFAEGFKNKDFKGAGVSVHETAERHFYRQSELLIPDVLANVNFSQADEVIADLRDKLHQLCEMLFNQSVAPYAHHPKLISTLALARATLYKHLRELKPQGGPSNG”, the “soluble on expression in E. coli” value is on record as “soluble”.

In the case of “MNLNQLTGADLMAARTHIGLSISAVAKLTGINRNTLSQFEQEKASLSGSEKKRLAGCYEERGYHFDEPQTTDETVLATRYDDARERLVDAAYDVNMNGLGEAVLALADASHDLLSMLARPMDVAQEEVELDAVELPESYLEMHNVLQRHFLADKAGQMQGKVGFFKEDADERSAKLIAYMAQQYLTLLHAEMPEVVSLERDSLDDDSDNARVLDALANWTFYDALKEMTV”, the “soluble on expression in E. coli” value is “not soluble”.

In the case of “MNLRGILPFAHDTLRKVVRSGDYVIDATCGNGHDTLLLAELVGVNGHVLGFDIQQMAIDATKTRLENAGVASQVELVCASHALIPEYATKPVRAAIFNLGYLPGGDKEITTTADSTLESIGHLMQLLEVGGVIIIVIYHGHPAGKVEKDAVLTFCEAIPQQDFHVLSYNFINQKNDAPFVIIIEKRKPLEHHHHHH”, the “soluble on expression in E. coli” value is “not soluble”.

Consider “MNLRPVIVGGGSAGMAAAIELARRGVPCVLFDEASRPGGVVYRGPLRAGVDPAYLGARYTRMLEKLRRDFSACAGHIDLRLNSRVVGGDGQRLMVLDEAERLHEVEYSHLLLATGCHERSVPFPGWTLPGVMLLGGLQLQIKSGVVKPLGDTLIAGSGPLLPLVACQLHAAGVRVAGVYEACAFGRMARESLALLNKPQLFLDGLSMLGYLKLNGIPLHYGWGVVEASGDGELTEVTVAPYDEEWRPDLENARPVKASTLAVGYGFIPRTQLSQQLGLEHGFSDDGYLRAECNVWQQSSQPHIHLAGDMAGIRGGEAAMIGGRIAALSILLQREAIAPAEAIERRESHLARLEAIKRFRAGVERYTQRGARQVELARADTVICRCEQVTRGDIERALEQGVQDIAGLKMRTRAGMGDCQGRMCIGYCSDRLRRATGRHDVGWLRPRFPIDPIPFSAFQNLGTEALEHHHHHH”, for which the “soluble on expression in E. coli” value is listed as “not soluble”.

Regarding “MNLYIASIKLWFKGFKENTERSITYSFEPNKINVITGDSSTGKSSILDIIDYLLLSDNPTIVENIINENVEFYGMNIFLEERSYILMRKAPHSGQGTQDVYWKEQEEYPMPYIQTHSVGEMRTILTRMFYVPQHETKVGNRKYNMTFRHFLPFNYLTEDIISSANTYFDTAFFINRSYDVFLDYALELVNGIQYHNANEIKAKIEKAEIDLKQYQKKHQIAQENATKYKASLTSIYDDALSLNLIPADNFFVRENAHEMLHYIKEALAAYNKLIKNDEDTKKLELLKKERYELNNKLSIYNSLLAEMQKQKSSGKKIQDSLRPITFIKEHIDEVIISPETIELLHLLEKQLVQIKESRKEKPKLPHDFALRHEELKDKLKACESKLKELTILRKTIANPKWLERAIGLKYRLENLKRPKEDTYQASTEQNMISLIESLKIEQKNMSLLPHDVKEKLNSYINKYFHSINGIVDSYPDSTMRYDDDERRISLLNNGEDYPVRNIGSKSNYMFLHLCFFLGLHESIMFHRSKHVGSFLFIDQPSMPYYADKGTLDNDDKKQLIKAFRLLNEFMEEIIGNQNRSFQMILIEHADESYWKELEYFHTTATFSKIAQGGLIPKYIYE”, the “soluble on expression in E. coli” value is given as “not soluble”.

On to “MNMIDKIGVHDVPPGESLQPPRIPYTPIFSNKRLSKHMSRFLIYFLPFFIYSGNVLSKTSCLMATGVLKCPTDPEAVKKVHIDLWDEDSLPLESDDLMGRTWSDRNGNFQVTGCASDFGPINTPDPYLYIQHNCPHRDSNATNPIQVYLKVLENASF”, for which the “soluble on expression in E. coli” value is on record as “not soluble”.

With “MNNDKLQRMVENLSEEKFGRTFRHCAYFNKRLRTTGGRYLLKSHDIEINPKQYEHYGEDAVVKIILHELCHYHLHIAGKGYQHKDQDFKRLSQQVGAPRFCNSIESYQQRANYEYYCTKCHAKYIRIRKVDTNRMRCGHCNGKLRMKRQLK”, the “soluble on expression in E. coli” value is given as “not soluble”.

In the case of “MNNEFLQTEEDIVRMLRTVYDPEIPVNVYDLGLIYNVDVGADGFVTVTMTLTAPNCPAADFIIEDVRMKVESVKGVKGVKIDLTFEPEWNKDMMSEEAMLELGFL”, the “soluble on expression in E. coli” value is on record as “not soluble”.

“MNNKLTPVSPGEMLAEEFLIPLGMSNYRLAKEIGVSAQRIGEIVTGKRAITVDTDLRLCRFFGLSDGWWLRLQVDYDIEMARGALEETLAKIRPWANTQEHGTPA”: the “soluble on expression in E. coli” value was “not soluble”.

On to “MNNQNNNFVDFSEDDDMMDADFLGVVIPDDLMNASLEFQRTEPFSFIPAEEDLAPMEILPNNQGDVEMTAVDKNPDKVLFELRVETQIEPTLNYINAENEAVEWDIKSYYDFDNPQRPAQADEAATYQENGYGFVDFQPFAQQQQPAYNGNEPEFLIQRMQITDETYANAHFHQNEYAIEEKPSLFSPSSTPSYCCTSGPISPAYTPIGNNANACAPTRSRRTSTASNKSGGKIGKVAKLGEKSSGEKRTRMTKAEMSRLTEKEKLERKKEQNRANAKNCVKNRNNSKEELKQTLEMLREKVQEAKRQNEMQENGLLAAYETNIFAVQGNNFPYGSLELFYDQLQGSKAEAVEQVQYDNNGEVVQLEEAFNKTEQDYGQYTSVKKIAGLPQNTFASKKSRAKTAFEIADHQLNLKKEEVELREANAIKVVLNQITRELNRYMDGAKLAEQQAFDENFQQFEPS”, for which the “soluble on expression in E. coli” value is on record as “not soluble”.

For the sequence “MNNSNRIIPFAFKSSEHGSYEDEMMEMEDVVDVEDYMGGEKYDSYNDAKEDIKDFKTTQRMKKIHRMEKIEQNIASEKIDIIELGTRVMVSTSDKTLNEASLERTIRCGISEATFLGDISMESLVEGMVNPSAADGRFAMLGTSIMLNALKSNIKDLRGTIVGQTTNTNSESKFDKIDLSLMNLSHCQQTSYNIRATGVFSNADLQYVFSLLTFRRNAKLLNKTKQFIKAYFCVACRPRCMIWRYTLRRAGNSQRRAILNLPSAIVSTITQFLLDLTGISDANIPYDQLDPMTPLSISLGEDESMRVQRYEEACRLKDPLTRFFRDAITDCLNELREMPFCLNTGILLSPLRGREQGTSCVTWKDYEGFLKREHDLPSEANMKKRTQFEQRLCDIIPRVRRPVPN”, the “soluble on expression in E. coli” value was “not soluble”.

For “MNNWREIAVRPDESIRETLEVIDEGAVQIAIVADGHDHLQGIVTDGDIRRGILKDLDLGAPVASVMNEDPITARPQEDRQSLIDTMRARRIHQIPLVDNEGRVVGIEVLDDLLEPEARPNPVVLMAGGLGTRLRPLTDDCPKPLLEVGDKPILETILEGFIAHGFHRFYLSVNYKAGMIEDYFRDGSNWGVDISYVHEEKRLGTAGPLSLLPERPDETMIVMNGDLLTKLNFTHLLDFHREHGAVATMCVREHETQVPYGVIETDDQSMEGIEEKPTERYFVNAGIYVLEPETLGYVPENEFFDMPDLFKRLIDEGKEATVFPVREYWQDVGRKEDFHRVNGEYEEVFDTLEHHHHHH”, the “soluble on expression in E. coli” value was “soluble”.

The values above are taken from the DeepSol protein solubility set.
